Source: paper PMC2655723

What was measured:
[1] = biological target: Full-length HIV-1 YU2 envelope glycoproteins (HIV-1, strain YU2) (UniProt P35961)
[2] = biological target: HIV-1 AD8 envelope glycoproteins (HIV-1, strain AD8)

“Four-domain soluble CD4 (domain or fragment)” was tested, and the IC50 of sCD4 for inhibition of infection of CD4+CCR5+ Cf2Th cells by recombinant HIV-1(YU2), luciferase activity [1] was 12 nM and the IC50 of sCD4 for inhibition of infection of CD4+CCR5+ Cf2Th cells by recombinant HIV-1(AD8), luciferase activity [2] was 80 nM.
